In experiment [1] the target is Xmad2 (Xenopus laevis (endogenous in egg extracts)). The experiment in a line: co-IP.
For experiment [2], the target named is Xmad1 (Xenopus laevis (endogenous in egg extracts)). The experiment in a line: co-IP.

In experiment [1], Xmad1 (natural protein) had a percent of Xmad1 removed by immunodepletion of Xmad2 greater than 95%. Take Xmad2 (natural protein): the percent of Xmad2 bound with Xmad1 in experiment [2] worked out at 40%.
